From paper doi:10.1101/2024.06.20.599867 (bioRxiv, 2024)

Target: the molecule itself
Assay: cryo-EM structure

B1: ABC transporter MsbA (His-tagged, E. coli) (natural protein)
chain: MHNDKDLSTWQTFRRLWPTIAPFKAGLIVAGVALILNAASDTFMLSLLKPLLDDGFGKTDRSVLVWMPLVVIGLMILRGITSYVSSYCISWVSGKVVMTMRRRLFGHMMGMPVSFFDKQSTGTLLSRITYDSEQVASSSSGALITVVREGASIIGLFIMMFYYSWQLSIILIVLAPIVSIAIRVVSKRFRNISKNMQNTMGQVTTSAEQMLKGHKEVLIFGGQEVETKRFDKVSNRMRLQGMKMVSASSISDPIIQLIASLALAFVLYAASFPSVMDSLTAGTITVVFSSMIALMRPLKSLTNVNAQFQRGMAACQTLFTILDSEQEKDEGKRVIERATGDVEFRNVTFTYPGRDVPALRNINLKIPAGKTVALVGRSGSGKSTIASLITRFYDIDEGEILMDGHDLREYTLASLRNQVALVSQNVHLFNDTVANNIAYARTEQYSREQIEEAARMAYAMDFINKMDNGLDTVIGENGVLLSGGQRQRIAIARALLRDSPILILDEATSALDTESERAIQAALDELQKNRTSLVIAHRLSTIEKADEIVVVEDGVIVERGTHNDLLEHRGVYAQLHKMQFGQ
B1: binds.
